Assay results reported in paper PMC3168705 (The FEBS journal, 2011).

Target: McTnI_(29–211), mouse cardiac TnI with the NH2-terminal extension removed (mouse, UniProt P48787 29-211)
Assay: ELISA

McTnI_(29–211), mouse cardiac TnI with the NH2-terminal extension removed, sequence (P48787 29-211): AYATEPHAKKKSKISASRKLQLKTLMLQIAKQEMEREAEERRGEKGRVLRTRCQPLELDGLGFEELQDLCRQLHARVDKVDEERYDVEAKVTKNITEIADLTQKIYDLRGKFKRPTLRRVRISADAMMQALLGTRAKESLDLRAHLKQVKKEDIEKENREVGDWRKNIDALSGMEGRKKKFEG

- binding result: binds
B1: chicken fast TnC (natural protein)
chain: not shown
